Measurements: publication PMC6883096

How the values were obtained:
[1] = target: DS153 (BaxA N29S) (Bacillus amyloliquefaciens)
[2] = target: DS241 (BaxA S31R) (Bacillus amyloliquefaciens)
[3] = target: DS428 (BaxA I51V) (Bacillus amyloliquefaciens)
[4] = target: catalytic domain of Thermomonospora fusca TF xylanase A (TfxA_CD) (Thermomonospora fusca TF)
[5] = target: recombinant Bacillus amyloliquefaciens xylanase A (reBaxA) (Bacillus amyloliquefaciens)

inhibitory rate of xylanase activity after incubation of the xylanase with rePRIXI at 50°C for 40 min (residual activity on beechwood xylan) [1]: 14.8%
inhibitory rate of xylanase activity after incubation of the xylanase with rePRIXI at 50°C for 40 min (residual activity on beechwood xylan) [2]: 20.5%
inhibitory rate of xylanase activity after incubation of the xylanase with rePRIXI at 50°C for 40 min (residual activity on beechwood xylan) [3]: 11.3%
inhibitory rate of xylanase activity after incubation of the xylanase with rePRIXI at 50°C for 40 min (residual activity on beechwood xylan) [4]: 11.2%
inhibitory rate of xylanase activity after incubation of the xylanase with rePRIXI at 50°C for 40 min (residual activity on beechwood xylan) [5]: 30.3%
B1: recombinant rice xylanase inhibitor (rePRIXI) (natural protein)
chain: AGKTGQMTVFWGRNKNEGTLKETCDTGLYTTVVISFYSVFGHGRYWGDLSGHDLRVIGADIKHCQSKNIFVFLSIGGAGKDYSLPTSKSAADVADNIWNAHMDGRRPGVFRPFGDAAVDGIDFFIDQGAPDHYDDLARNLYAYNKMYRARTPVRLTATVRCAFPDPRMKKALDTKLFERIHVRFYDDATCSYNHAGLAGVMAQWNKWTARYPGSHVYLGLAAANVPGKNDNVFIKQLYYDLLPNVQKAKNYGGIMLWDRFYDKQTGYGKTVKYWA
